The subject of experiment [1] is MDA-MB-435s cells. Briefly: Primary breast tumor growth in nude mice (MDA-MB-435s orthotopic). In kind it is in vivo. The settings on record: 5 mg/kg, 2 times per week; by the 10th week; P<0.05. Here is the method: (§1) The MDA-MB-435s cells were detached and re-suspended in serum-free DMEM to the concentration of 5×10^7 cells/ml. Each group of 10 female 4 to 6-week old nude mice were anaesthetized by injection of sodium pentobarbital (ip.). Under sterile condition, the skin was sterilized, and a small incision (0.5-mm) was made in the skin over the lateral thorax below the right limb. The mammary fat pads (mfp) were exposed and MDA-MB-435s cells (5×10^6 in 100 μl DMEM) were orthotopically injected into the mfps. The cut was then closed. The animals were randomly divided into four groups, and each accepted the treatment as specified below from the day after the tumor cell inoculation:
(§2) 1A12: 5 mg/kg, 2 times per week;
(§3) Control antibody: 5 mg/kg, 2 times per week.
(§4) The tumor formation in nude mice was observed once a week, the maxima of the diameter (length) and a perpendicular dimension of the tumor (width) were measured using a caliper, and the volume was calculated as follows: Volume=0.52×length×width^2. The changed tumor volumes were plotted versus the time into a tumor growth curve.
The tumor size was plotted versus time into a tumor growth curve. […]

Experiment [2] has as its system MDA-MB-435s cells. The experiment in a line: Scratch wound healing assay. In kind it is cell-based. Particulars: antibody 25 μg/ml; 24 hours. The procedure: The MDA-MB-435s cells cultured in a 12-wells plate to almost confluent (90%) washed with PBS and starved overnight with serum-free DMEM. Scratches were made on the cell monolayer using a 10 μl pipette, and PBS was added to wash away the floating cells. The test groups were treated with 25 μg/ml of the murine anti-human OPN antibody 1A12, the human-murine chimeric antibody c1A12 and the humanized antibody h1A12, and the control group, 25 μg/ml of the irrelevant antibody. The cells were incubated in an incubator at 37° C. for 24 hours. The result was expressed as the number of the cells that cross the base line.

The test system of the next experiment is HUVECs. The experiment in a line: Formation of capillary-like structure in HUVECs on matrigel. It counts as cell-based, human. The procedure: HUVECs were cultured in the M200 medium containing LCGS to 80% confluence. The matrigel stored at −20° C. was took out the day before experiment and naturally thawed at 4° C. for 3 to 12 hours. To each well of a 96-welt plate was added […] using a pre-cooled pipet with carefully removing the bubbles, wherein the whole procedure was carried on ice. The loaded plate was incubated at 37° C. for 1 hour to gel the matrigel. To each well, 100 μl HUVECs (2×10^4/well) was gently added onto the surface of matrigel. To the treatment groups were further added the anti-hOPN antibodies 1A12, c1A12 and h1A12. The plate was incubated at 37° C. for […], and the formation of the capillary-like structure was observed 6 hours after.

Experiment [3] relates to MDA-MB-435s cells. The experiment in a line: Spontaneous lung metastasis in nude mice (MDA-MB-435s). In kind it is in vivo. The settings on record: 5 mg/kg, 2 times per week; histological sections. The procedure:
as §1, §2, §3, §4
The mice were sacrificed by cervical dislocation at the end of the 10th week after inoculation. For each group, tumor tissues were isolated, fixed with 10% neutral formalin and embedded in paraffin, and the tumor tissue and lung tissue were stained with H & E for analysis. […]

For experiment [4], the system named is MDA-MB-435s cells. The experiment in a line: Clone formation on soft agar assay. Particulars: antibody 25 μg/ml every other day; 3 weeks. In kind it is cell-based. The procedure: The assay of clone formation on soft agar was conducted using a double-layer soft agar system. 2.5% melted agar was mixed the DMEM medium pre-warmed at 37° C. to formulate a 0.5% agar solution, which was then diluted with DMEM to a 0.3% agar solution. To each well of a 24-well plate was added 500 μl of a 0.5% agar solution, which was allowed to gel at 4° C., and then kept warm in an incubator at 37°C. The MDA-MB-435s cells were detached using 0.2% .EDTA and suspended in the 0.3% agar solution at the concentration of 5×10^3 cells/ml. 500 μl of the cell suspension was added each well and left to gel. From the second day, the cells were respectively treated with 1A12, c1A12, h1A12 or the irrelevant antibody (23C3D3) (25 μg/ml) every other day. After 3 weeks, the colony formation ability was evaluated by measuring the size of colonies containing more than 10 cells.

Experiment [5] has as its system MDA-MB-435s cells. Briefly: Cell invasion assay (Transwell, Matrigel). It counts as cell-based. Particulars: antibody 25 μg/ml; in the presence of hOPN; 24 hours. Here is the method: The assay of cell invasion was carried out using the Transwell system (Corning) with the pore size of […]. The basement membrane of the upper chamber was coated with the artificial matrix gel (Matrigel). After being dried in a flame hood, the matrigel was hydrated with DMEM at 37° C. for 1 hour. MDA-MB-435s cells were detached using 0.2% EDTA and suspended in 0.25% BSA/DMEM at the concentration of 5×10^5 cells/ml. 100 μl of the obtained cell suspension as well as the following 25 μg/nil of antibodies were respectively added into the upper chamber of each well: 1A12 (murine anti-human OPN antibody), c1A12 (human-mouse chimeric antibody), h1A12 (humanized antibody), and 23C3 (irrelevant antibody control). To lower chamber, 0.25% of BSA/DMEM (with or without OPN) was added. The system was then incubated in incubator at 37° C. for 24 hours. After that, the cells remaining in the upper chamber was wiped away using a cotton swab, and the cells penetrate through the basement membrane into the lower chamber were washed with PBS, fixed with 1% formaldehyde, and then stained with 0.5% crystal violet. The cells were counted in the field at 200× magnification under a microscope.

Entries after “also recorded” stand apart in the source; their conditions may differ.

B1: 1A12: murine anti-hOPN mAb; VH SEQ ID NO: 4, VL SEQ ID NO: 6; from hybridoma 1A12 (antibody, V domains shown)
VH: QVQLEQSGPELVKPGASVKMSCKSSGYTFTTYVMHWVKQKPGQGLEWIGYINPYNDGSKYNEKFKGKATLTSDKSSNTAYMELSSLTSEDSAVYYCASHYGGSPAYWGQGTLVTVSA
VL: DILMTQTPLSLPVSLGDQASISCRSSQSLVHSNGNTYLHWYLQKPGQSPKLLIYKVSNRFSGVPDRFSGSGSGTDFTLKISRVEAEDLGVYFCSQSTHVPWTFGGGTKLEIKR
modifications: amino acid sequence of the heavy chain variable region in 1A12; amino acid sequence of the light chain variable region in 1A12
notes: murine anti-hOPN mAb; from hybridoma 1A12
With B1, the “tumor size versus irrelevant antibody treated group” value in the experiment with MDA-MB-435s cells [1] is listed as “significantly smaller; also recorded: effectively inhibit tumor development”. In addition, in the experiment on MDA-MB-435s cells [2], the “inhibition of the reparation of the scratches and damages” value is recorded as “effectively inhibit”. In addition, the “potency of forming the capillary-like structure in HUVECs” value in the experiment with HUVECs is “reduce”. In the experiment on MDA-MB-435s cells [3], the “number of the metastasis in lung” value was “reduced; also recorded: block tumor metastasis” and the “size of the metastasis in lung” value is given as “reduced”. Besides, the “inhibition of clone size formed by MDA-MB-435s cells on soft agar” value in the experiment on MDA-MB-435s cells [4] is reported as “could inhibit the clone size”. Besides, in the experiment with MDA-MB-435s cells [5], the “blocking of invasion of the basement membrane by MDA-MB-435s” value is “effectively block”.

The record behind these values is patent US20100151486A1, “OSTEOPONTIN FUNCTIONAL EPITOPES, MONOCLONAL ANTIBODIES AGAINST THE EPITOPES AND USES THEREOF” (SHANGHAI NATIONAL ENGINEERING RESEARCH CENTER OF A, priority 2007, published 2010).
